One molecule from patent US20240409645A1 (DUALYX, published 2024) can be followed below.

The target in the assay is T1, human IL-2 receptor (IL-2Rα/IL-2Rβ/γc) (human, UniProt P01589 22-272; P14784 27-551; P31785 23-369).
T1 sequence 1: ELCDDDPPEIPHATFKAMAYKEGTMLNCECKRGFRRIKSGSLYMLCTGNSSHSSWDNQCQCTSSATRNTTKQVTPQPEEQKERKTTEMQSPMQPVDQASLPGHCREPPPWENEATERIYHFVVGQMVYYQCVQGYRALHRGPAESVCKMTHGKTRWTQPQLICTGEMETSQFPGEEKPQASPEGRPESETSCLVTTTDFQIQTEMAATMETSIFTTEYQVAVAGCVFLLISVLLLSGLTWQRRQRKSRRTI
T1 sequence 2: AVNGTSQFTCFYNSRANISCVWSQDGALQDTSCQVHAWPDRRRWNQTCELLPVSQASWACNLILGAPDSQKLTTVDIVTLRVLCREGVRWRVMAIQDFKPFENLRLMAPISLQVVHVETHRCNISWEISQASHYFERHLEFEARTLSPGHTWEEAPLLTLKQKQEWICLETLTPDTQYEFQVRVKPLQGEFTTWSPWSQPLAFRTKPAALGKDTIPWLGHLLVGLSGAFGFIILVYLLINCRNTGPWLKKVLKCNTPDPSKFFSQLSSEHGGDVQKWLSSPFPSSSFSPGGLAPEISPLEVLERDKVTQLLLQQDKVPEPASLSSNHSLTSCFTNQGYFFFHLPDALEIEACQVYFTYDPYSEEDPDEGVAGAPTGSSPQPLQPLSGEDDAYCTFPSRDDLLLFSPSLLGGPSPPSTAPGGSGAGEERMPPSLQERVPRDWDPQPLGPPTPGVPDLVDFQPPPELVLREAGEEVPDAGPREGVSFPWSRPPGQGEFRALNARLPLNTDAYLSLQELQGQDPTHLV
T1 sequence 3: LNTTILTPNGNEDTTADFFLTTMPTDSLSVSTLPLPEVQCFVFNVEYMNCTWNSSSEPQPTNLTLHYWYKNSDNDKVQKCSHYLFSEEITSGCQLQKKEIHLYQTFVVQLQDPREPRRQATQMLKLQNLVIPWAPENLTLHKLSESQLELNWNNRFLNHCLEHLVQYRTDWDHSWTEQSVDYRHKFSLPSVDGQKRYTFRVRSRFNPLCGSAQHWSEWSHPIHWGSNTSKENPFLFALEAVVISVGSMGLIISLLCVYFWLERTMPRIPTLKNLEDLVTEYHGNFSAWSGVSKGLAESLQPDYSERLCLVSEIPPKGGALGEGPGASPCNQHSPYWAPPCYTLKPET
The assay can be described thus: cell-based or functional assay.

B1: DC00053 (other)
chain 1: QVQLVESGGGLVQPGGSLRLSCATSGFTFRNNFMSWVRQAPGKGLEWVSTISYGGESTTYAESVKGRFTISRDNAKNTLYLQMNNLKPEDTAVYYCAKATSYDSIRSGSRGQGTQVTVSSGGGGSGGGGSGGGGSEVQLVESGGGLVQTGGSLRLSCAASGGTFSRDAMAWFRQVPGKEREFVALISWSGATTNYADSVKGRFAISRDNGKNTVYLQMNRLKPADTAIYYCAADRRPMGSRSYFEPTEYDDWGQGTQVTVSSGGGGSGGGGSGGGGSDKTHTCPPCPAPEAAGGPSVFLFPPKPKDTLMISRTPEVTCVVVDVSHEDPEVKFNWYVDGVEVHNAKTKPREEQYNSTYRVVSVLTVLHQDWLNGKEYKCKVSNKALGAPIEKTISKAKGQPREPQVYTLPPSRDELTKNQVSLTCLVKGFYPSDIAVEWESNGQPENNYKTTPPVLDSDGSFLLYSKLTVDKSRWQQGNVFSCSVMHEALHNHYTQKSLSLSPGK
chain 2: EVQLVESGGGLVQTGGSLRLSCAASGGTFSRDAMAWFRQVPGKEREFVALISWSGATTNYADSVKGRFAISRDNGKNTVYLQMNRLKPADTAIYYCAADRRPMGSRSYFEPTEYDDWGQGTQVTVSSGGGGSGGGGSGGGGSQVQLVESGGGLVQPGGSLRLSCATSGFTFRNNFMSWVRQAPGKGLEWVSTISYGGESTTYAESVKGRFTISRDNAKNTLYLQMNNLKPEDTAVYYCAKATSYDSIRSGSRGQGTQVTVSSGGGGSGGGGSGGGGSQVQLVESGGGLVQAGGSLTLSCAAPGRTFGTDVVGWFRQAPGKEREFVASISRSGDGIYYDDSVKGRFTISRNNAWNTVNLQMNSLKVEDTAVYYCAAGDGWSTYDYWGQGTQVTVSSGGGGSGGGGSGGGGSDKTHTCPPCPAPEAAGGPSVFLFPPKPKDTLMISRTPEVTCVVVDVSHEDPEVKFNWYVDGVEVHNAKTKPREEQYNSTYRVVSVLTVLHQDWLNGKEYKCKVSNKALGAPIEKTISKAKGQPREPQVYTLPPSRDELTKNQVSLTCLVKGFYPSDIAVEWESNGQPENNYKTTPPVLDSDGSFFLYSRLTVDKSRWQQGNVFSCSVMHEALHNHYTQKSLSLSPGK
In the case of B1, the “EC50 (nM) pSTAT5, NK, human PBMCs” value is 0.057 nM; the “EC50 (nM) pSTAT5, Treg, human PBMCs” value is 0.488 pM; the “Fold Max signal (% pSTAT5+) Treg/NK” value turned out to be 7 fold; the “Max signal (% pSTAT5+), NK” value was found to be 13 % pSTAT5+. The “Max signal (% pSTAT5+), Treg” value is 84 % pSTAT5+ and the “fold EC50 NK/Treg” value was 117 fold.
